Series [1] can be described thus: Differential scanning calorimetry of avidin and AVR4/5 forms. The class given is physicochemical. The method, then: The thermodynamics of the heat-induced unfolding of the proteins were studied using DSC. The transition midpoint of heat-induced denaturation (Tm) of the avidin and different AVR4/5 forms was studied using a Nano II differential scanning calorimeter (Calorimetric Sciences Corporation, Provo, Utah, USA). The reference cell was filled with buffer whereas the sample cell was filled with proteins dissolved in 50 mM sodium phosphate buffer, pH 7.0 containing 100 mM NaCl. Avidin and AVR4/5(C124S) were also analyzed in 50 mM Na-acetate pH 4.0 containing 100 mM NaCl. Furthermore, AVR4/5 was analyzed in the presence of 2-mercaptoethanol (0.4% v/v). The samples (1.6-9.6 μM) were analyzed both in the absence and presence of a three fold molar excess of biotin/subunit. All samples were degassed before being loaded into the DSC. The thermograms were recorded as a function of temperature; between 25 and 130° C. at a rate of 55.6° C./h (Gonzalez, M., Argarana, C. E. & Fidelio, G. D. (1999) Biomol. Eng. 16, 67-72; Nordlund, H. R., Laitinen, O. H., Uotila, S. T., Nyholm, T., Hytönen, V. P., Slotte, J. P. & Kulomaa, M. S. (2003) J. Biol. Chem. 278, 2479-2483). Data was analyzed using Microcal Origin 6.0 and Cpcalc 2.1 (Applied Thermodynamics, Hunt Valley, Md.). The change in heat capacity upon unfolding (ΔCp) was measured for avidin and AVR4/5(C124S) using DSC data from measurements in pH 4.0 and 7.0. ΔCp was then obtained from the slope of ΔH vs. Tm (Liu, Y. & Sturtevant, J. M. (1996) Biochemistry 35, 3059-3062).

Series [2] is described as follows: IASyS optical biosensor, binding in a 2-iminobiotin cuvette. As to conditions: for Kd: 2-iminobiotin cuvette, 20.0° C. The method, then: The biotin-binding characteristics of the AVR proteins were studied as previously described using the IASyS optical biosensor (Marttila, A. T., Airenne, K. J., Laitinen, O. H., Kulik, T., Bayer, E. A ., Wilchek, M. and Kulomaa, M. S. (1998) FEBS Lett. 441, 313-317; Laitinen, O. H., Airenne, K. J., Marttila, A. T., Kulik, T., Porkka, E., Bayer, E. A., Wilchek, M. and Kulomaa, M. S. (1999) FEBS Lett. 461, 52-8). Affinities were measured for 2-iminobiotin or biotin at 20.0° C. using a stirring power of 100%. Briefly, the protein under study in biotin-free buffer was allowed to bind to the biotin-coated surface of the IASyS cuvette. As a negative control, the protein under study was saturated with excess biotin prior to (and was also maintained under biotin excess upon) addition to the cuvette. Under these conditions, residual binding to the biotin surface of the cuvette could be regarded as unspecific, and was used as a measure of baseline variation. Binding equilibrium in the experimental cuvette was considered to be attained after no binding was detected as compared to negative control.
The actual dissociation constants (Kd) were calculated for the AVRs according to the kass and kdiss rates measured in a separate assay in different protein concentrations (varying between 10 μM and 100 pM) (Table 4 and FIG. 6). The binding seemed to follow two-order or even more complex kinetics. However, the first 1000 seconds of the binding fitted considerably well to the bi-phasic curve. All measured dissociation rate constants (kdiss) followed the first-order kinetics. Because of the extremely high binding, affinities of the AVRs for biotin could not be determined except for AVR1, AVR2 and AVR7. Binding to 2-iminobiotin was determined only for AVR4/5, and it was similar to that of avidin. The lack of binding for the other AVRs was surprising, since most of them were purified using 2-iminobiotin agarose.

[3] abbreviates: 2-iminobiotin cuvette (as for Kd of this protein).

Like-named read-outs stand apart in the source and are kept apart here.

B1: AVR4/5: Recombinant chicken avidin-related protein 4/5 (AVR4 and AVR5 identical in coding sequence) (protein, UniProt P56734 25-150, looked up)
Avidin-related protein 4/5: ARKCSLTGKWTNNLGSIMTIRAVNSRGEFTGTYLTAVADNPGNITLSPLLGIQHKRASQPTFGFTVHWNFSESTTVFTGQCFIDRNGKEVLKTMWLLRSSVNDISYDWKATRVGYNNFTRLCTVEE
As a reminder, the ΔTm is the shift of the melting midpoint relative to a reference. The term Kd denotes the free concentration of one partner at which half of the binding sites on the other are occupied at equilibrium, for simple one-to-one binding. For B1, the “DSC Tm(−biotin)” value in series [1] (50 mM sodium phosphate pH 7.0, 100 mM NaCl) worked out at 107.4 ± 0.3 °C. The ΔTm in series [1] (change in Tm upon addition of a three-fold molar excess of biotin) amounted to 17.3 °C. The ΔH of unfolding in series [1] (sample without biotin) is 194 ± 33.5 kcal/mol. Moreover, in series [1] (three-fold molar excess of biotin, pH 7.0), the “DSC Tm (+biotin)” value was 124.7 ± 0.3 °C. In series [2] (setting [3]), the kass result is “(1.8 ± 0.2) × 10^5 M^−1 s^−1” and the kdiss result was “(1.7 ± 0.7) × 10^−3 s^−1”. The Kd in series [2] (read-out: Kd calculated directly from the binding curves) is 91 nM. In addition, in series [2] (read-out: Kd calculated from the equilibrium response data), the Kd is 570 nM. For the same molecule, the “maximal binding (Rmax)” value in series [2] (iminobiotin binding, highest concentration (2.2×10−6 M)) is “ca. 1000 arc seconds”.

(Values after patent US20060281899A1, “Mutants of biotin binding protein” (priority 2002, published 2006).)
